Test [1] addresses T1, E200 peptide.
T1 construct: Antigen derived from dysfunctional P2X7 receptor
T1 peptide: GHNYTTRNILPGLNITC
As to the kind of experiment: binding kinetics on E200 peptide; method not stated.

The target of test [2] is T1, E200 peptide. In words: binding kinetics on E200 peptide; method not stated; column 'affinity (nM) (E200)'.

B1: BIL03 VH only (other)
VH: EVQLLESGGGLVQPGGSLRLSCAASGFTFRNHDMGWVRQAPGKGLEWVSAISGSGGSTYYANSVKGRFTISRDNSKNTLYLQMNSLRAEDTAVYYCAEPKPMDTEFDYRSPGTLVTVSS
notes: Human single-domain VH tested without a light chain; also called BIL03 heavy chain; single domain heavy chain protein BIL03
Usually Kd stands for the equilibrium constant for the complex coming apart. For B1, the Kd with E200 peptide [1] and with E200 peptide [2] was 127 nM in each case.

B2: BIL03-WT B1 (scFv format) (scFv, V domains shown)
VH: B1 VH
VL: DIQMTQSPSSLSASVGDRVTITCRASQYIYDYLNWYQQKPGKAPKLLIYAASYLQSGVPSRFSGSGSGTDFTLTISSLQPEDFATYYCQQYHHPSTFGQGTKVEIKR
notes: Tested in scFv format, so VH and VL sit in one polypeptide
Take B2: the dissociation constant Kd with E200 peptide [1] was 24.2 nM; with E200 peptide [2] it was 24 nM.

B3: BIL03-Germline B1 (other)
VH: B1 VH
VL: DIQMTQSPSSLSASVGDRVTITCRASQSISSYLNWYQQKPGKAPKLLIYAASSLQSGVPSRFSGSGSGTDFTLTISSLQPEDFATYYCQQFDYMPLTFGQGTKVEIKR
notes: also called G B1; GB1
As for B3, the results for the dissociation constant Kd with E200 peptide [1] and in the test with E200 peptide [2] were 82.7 nM and 83 nM, respectively.

The values above are taken from patent US20240376193A1 (BIOSCEPTRE AUST, published 2024).
